The record followed here is paper PMC10702826 (EMBO Reports, 2023).

The target in assay [1] is charged UFC1 (UFC1~UFM1): isopeptide‐linked UFC1 T106S/C116K ‐ Strep‐tagged UFM1 covalent complex (UniProt Q9Y3C8). The assay can be described thus: ITC. In general terms: In ITC the heat of successive injections is recorded.
The target of assay [2] is T1, UFC1 (E2), wild type, uncharged (UniProt Q9Y3C8 1-167).
T1 sequence: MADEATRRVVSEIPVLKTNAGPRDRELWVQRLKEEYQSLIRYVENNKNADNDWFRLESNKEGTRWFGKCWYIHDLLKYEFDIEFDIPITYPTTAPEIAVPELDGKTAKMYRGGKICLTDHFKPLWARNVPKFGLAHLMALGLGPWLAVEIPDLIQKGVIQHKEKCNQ
The assay can be described thus: NMR titration.

Assay [3] addresses T1, UFC1 (E2), wild type, uncharged. Briefly: ITC.
In another assay the target is T2, UFC1 K47E (UniProt Q9Y3C8 1-167, K47E).
T2 sequence: T1 sequence with K47E
The assay can be described thus: ITC.

Residue numbers refer to the chain shown, from its start. Where no end group is shown, it is not given here.

Consider “DDRGK1‐UFL1 fusion protein (DDRGK1 207–314 ‐ UFL1 1–200) (from UniProt Q96HY6;O94874)”, for which the dissociation constant Kd (commonly a measure of binding affinity in units of concentration) in assay [1] was determined as 2570 nM. In turn, “DDRGK1ext‐UFL1 extended fusion protein (DDRGK1 87–314 ‐ UFL1 1–200) (from UniProt Q96HY6 87-314; O94874 1-200)” returned a Kd in assay [1] of 230 nM.

B1: UBA5 C‐terminus (UBA5 347–404) (domain or fragment)
chain: SEVSEEELKNFSGPVPDLPEGITVAYTIPKKQEDSVTELTVEDSGESLEDLMAKMKNM
modifications: also: uniformly 15N-labelled
Turning to B1, the binding result in assay [2] was “binds”.

B2: DDRGK1‐UFL1 fusion protein (DDRGK1 207–314 ‐ UFL1 1–200) (other)
chain: MTEEQSQSFLTEFINYIKQSKVVLLEDLASQVGLRTQDTINRIQDLLAEGTITGVIDDRGKFIYITPEELAAVANFIRQRGRVSIAELAQASNSLIAWGRESPAQAPAMADAWEEIRRLAADFQRAQFAEATQRLSERNCIEIVNKLIAQKQLEVVHTLDGKEYITPAQISKEMRDELHVRGGRVNIVDLQQVINVDLIHIENRIGDIIKSEKHVQLVLGQLIDENYLDRLAEEVNDKLQESGQVTISELCKTYDLPGNFLTQALTQRLGRIISGHIDLDNRGVIFTEAFVARHKARIRGLFSAITRP
With B2, the Kd amounted to 2300 nM in assay [3] and 33800 nM with UFC1 K47E.
